Consider 6 molecules from patent publication US20140162952A1 (ONCOTHERAPY SCIENCE, published 2014).

The target in assay [1] is T1, inherent ERAP1 (Estrogen Receptor Activity-regulated Protein 1) (human, UniProt Q5TH69 1-2177).
T1 construct: Endogenous protein immunoprecipitated from cell lysates; also called ERAP1 polypeptide; BIG3
Description: co-IP from cytoplasm and nuclear fractions of KPL-3C cells, 24 h, 10 nM E2 and/or 10 µM HA-tagged ERAP1-peptide; blot anti-HA.

Assay [2] deals with T2, 6×His-tagged recombinant PHB2/REA protein (human, UniProt Q99623 77-244).
T2 construct: Expressed in Escherichia coli BL21 star (DE3); also called His-PHB2/REA; 6×His-PHB2/REA; not shown: hexahistidine tag, thioredoxin (TrxA) and TEV protease cut site at the amino terminal (pTAT6 vector)
Description: Biacore 3000, 6×His-tagged recombinant PHB2/REA immobilized on a CM5 chip, peptide injected; Biacore; His-PHB2/REA on the chip, HA-tagged peptide injected. A general note: In SPR one partner is held on a chip, and binding of the other changes the refractive index at the surface.

Assay [3] has as its target T2, 6×His-tagged recombinant PHB2/REA …. Description: fluorescence correlation spectroscopy, 10 nM FITC-tagged ERAP1-scramble peptide with rising 6xHis-PHB2/REA.
The target in assay [4] is T3, HA-PHB2 (HA-tagged PHB2 construct) (human, UniProt Q99623 1-299, limits assumed).
T3 construct: Expressed by transfection in COS-7 or HEK293T cells; also called PHB2/REA construct; HA-tagged PHB2/REA (WT); not shown: HA tag
The assay is described as follows: COS-7 co-transfection with the PHB2/REA construct, IP and immunoblot. On the technique in general: Immunoblotting shows a protein as a band on a membrane.

Assay [5] deals with T3, HA-PHB2 (HA-tagged PHB2 construct). Description: co-immunoprecipitation from COS-7 cells, IP anti-FLAG, blot anti-HA.
Assay [6] has the same target. Description: co-immunoprecipitation from COS-7 cells, IP anti-FLAG and IP anti-HA.
The target is the same in assay [7]. Description: co-immunoprecipitation from COS-7 cells, IP anti-HA, blot anti-FLAG.
Assay [8] has as its target T2, 6×His-tagged recombinant PHB2/REA …. Description: fluorescence correlation spectroscopy, 10 nM FITC-tagged ERAP1-peptide with rising 6xHis-PHB2/REA; same constant as the 14.4 µM of the text, in mass units.
The target is the same in assay [9]. Description: fluorescence correlation spectroscopy, 10 nM FITC-tagged peptide with His-PHB2/REA at various concentrations; fluorescence correlation spectroscopy; 10 nM FITC-tagged peptide in solution.
The target is the same in assay [10]. The assay is described as follows: Ni-resin pull-down of 10 µg His-PHB2 mixed with lysate of Flag-tagged ERAP1 expressing cells and HA-peptide; blot for Peptide.

Where no end group is shown, it is not given here.

T3 sequence (Q99623 whole entry): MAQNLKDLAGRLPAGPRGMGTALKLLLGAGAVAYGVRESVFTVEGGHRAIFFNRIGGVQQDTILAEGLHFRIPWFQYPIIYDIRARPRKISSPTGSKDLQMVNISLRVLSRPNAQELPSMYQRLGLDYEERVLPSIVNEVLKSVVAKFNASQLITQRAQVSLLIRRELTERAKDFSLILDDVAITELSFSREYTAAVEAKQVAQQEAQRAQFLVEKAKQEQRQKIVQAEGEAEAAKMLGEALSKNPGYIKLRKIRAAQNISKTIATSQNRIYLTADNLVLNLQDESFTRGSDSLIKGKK
T2 sequence (Q99623 77-244): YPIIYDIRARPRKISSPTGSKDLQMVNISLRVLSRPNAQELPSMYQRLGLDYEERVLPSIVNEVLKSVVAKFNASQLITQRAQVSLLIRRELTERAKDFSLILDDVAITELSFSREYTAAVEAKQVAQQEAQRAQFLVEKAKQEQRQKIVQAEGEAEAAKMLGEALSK

B1: HA-tagged ERAP1-peptide (peptide)
peptide: RRRRRRRRRRRQMLSDLTLQLRQR
notes: ERAP1-peptide to which an HA tag was added; also called ERAP1-HA-peptide; HA tag-added peptide; not shown: HA tag
B1: the binding result in assay [1] was “no binding (tested: 10 µM)”. Besides, in assay [2], the Kd worked out at 18.9 µM.

B2: scrPeptide (peptide)
peptide: DRQLQLSTLQRML
modifications: also: FITC tag, position not given here
notes: also called FITC-tagged ERAP1-scramble peptide
For B2, in [3], the binding result is given as “no binding (tested: about 1.25 mg/mL)”.

B3: ERAP1 mutant (alanine mutant of Q165, D169 and Q173) (other)
chain: MEEILRKLQKEASGSKYKAIKESCTWALETLGGLDTIVKIPPHVLREKCLLPLQLALESKNVKLAQHALAGMQKLLSEERFVSMETDSDEKQLLNQILNAVKVTPSLNEDLQVEVMKVLLCITYTPTFDLNGSAVLKIAEVCIETYISSCHQRSINTAVRATLSAMLSALTLALRQRQENTIIENPDVPQDFGNQGSTVESLCDDVVSVLTVLCEKLQAAINDSQQLQLLYLECILSVLSSSSSSMHLHRRFTDLIWKNLCPALIVILGNPIHDKTITSAHTSSTSTSLESDSASPGVSDHGRGSGCSCTAPALSGPVARTIYYIAAELVRLVGSVDSMKPVLQSLYHRVLLYPPPQHRVEAIKIMKEILGSPQRLCDLAGPSSTESESRKRSISKRKSHLDLLKLIMDGMTEACIKGGIEACYAAVSCVCTLL
notes: not shown: Flag tag
With B3, in [4], the “coprecipitation band, ratio when that with ERAP1 (1-434 aa) is designated as 100” value came out at 2%. Besides, the “ratio of the coprecipitated band (ERAP1 1-434 = 100)” value in assay [5] stood at 1. Besides, in assay [6], the binding result is listed as “no binding”.

B4: Q173A (other)
single chain: MEEILRKLQKEASGSKYKAIKESCTWALETLGGLDTIVKIPPHVLREKCLLPLQLALESKNVKLAQHALAGMQKLLSEERFVSMETDSDEKQLLNQILNAVKVTPSLNEDLQVEVMKVLLCITYTPTFDLNGSAVLKIAEVCIETYISSCHQRSINTAVRATLSQMLSDLTLALRQRQENTIIENPDVPQDFGNQGSTVESLCDDVVSVLTVLCEKLQAAINDSQQLQLLYLECILSVLSSSSSSMHLHRRFTDLIWKNLCPALIVILGNPIHDKTITSAHTSSTSTSLESDSASPGVSDHGRGSGCSCTAPALSGPVARTIYYIAAELVRLVGSVDSMKPVLQSLYHRVLLYPPPQHRVEAIKIMKEILGSPQRLCDLAGPSSTESESRKRSISKRKSHLDLLKLIMDGMTEACIKGGIEACYAAVSCVCTLL
notes: Construct named in the text, but absent from the list MOLECULES; its band ratios stand only on the sheet; also called alanine mutant of Q173 (Q173A)
For the molecule B4, the “ratio of the coprecipitated band (ERAP1 1-434 = 100)” value in [5] worked out at 79; in assay [7] it was 52.
With RRRRRRRRRRRQMLSDLTLQLRQR (also: FITC tag, position not given here) [FITC-tagged ERAP1-peptide], the Kd was found to be 480 µg/mL in [8] and 14.4 µM in [9].

B5: Scramble (HA-Peptide) (peptide)
single chain: DRQLQLSTLQRML
notes: it is detected in the Peptide blot, so it carries the tag; also called HA-tagged ERAP1-scramble peptide
Regarding B5, in assay [10], the binding result is reported as “no binding (tested: 100 µM)”.

By Kd is commonly meant the equilibrium constant for the complex coming apart.
